Experimental data reported in patent publication US9644034B2, “Anti-RSPO2 antibodies and uses thereof” (OncoMed Pharmaceuticals, Inc., priority 2011, dated 2017).

How the values were obtained:
[1] = tested on: PN7 pancreatic tumor cells; assay: PN7 pancreatic tumor xenograft growth in NOD/SCID mice; assay type: in vivo
Experimental: Dissociated PN7 pancreatic tumor cells (1×10^5cells) were injected subcutaneously into the flanks of 6-8 week old NOD/SCID mice. Tumors were allowed to grow for 25 days until they reached an average volume of 130 mm^3. The mice were randomized (n=10 per group) and treated with anti-RSPO2 antibody 130M23, anti-FZD antibody 18R5, gemcitabine, a combination of 130M23 and gemcitabine, a combination of 18R5 and gemcitabine, a combination of 130M23 and 18R5, a combination of 130M23, 18R5 and gemcitabine, or control antibody 1B7.11. Anti-RSPO2 antibody 130M23 was dosed at 10 mg/kg once a week, anti-FZD antibody 18R5 was dosed at 20 mg/kg once a week, and gemcitabine was dosed at […] once a week. Administration of the antibodies and gemcitabine was performed via injection into the intraperitoneal cavity. Tumor growth was monitored and tumor volumes were measured with electronic calipers at specific time points. Data are expressed as mean±S.E.M. A parallel set of experiments included mice treated with a FZD8-Fc soluble receptor (10 mg/kg) in combination with gemcitabine and FZD8-Fc in combination with 130M23 and gemcitabine.

human RSPO2 [2] = target: T1, human RSPO2 (Homo sapiens, UniProt Q6UXX9); assay: FACS binding of 130M23 and humanized 130M23 to HEK293 cells expressing FLAG-RSPO2furin-CD4TM-GFP; settings: five-fold serial dilutions
T1 construct: followed by the furin-like domains of RSPO2 (aa 31-146); expressed in transfected cells; host or cells: HEK-293
Experimental: HEK293 cells were transiently transfected with an expression vector encoding FLAG-RSPO2furin-CD4TM-GFP. As described in Example 11, FLAG-RSPO2furin-CD4TM-GFP is a chimeric fusion protein enabling cell surface expression of the N-terminal furin-like domains of human RSPO2. FLAG-RSPO2furin-CD4TM-GFP transfected cells were incubated in the presence of anti-RSPO2 antibody 130M23 or humanized anti-RSPO2 antibody […]. Five-fold serial dilutions of each antibody were examined for their ability to bind to the RSPO2 expressing cells. The cells were stained with Phycoerythrin conjugated anti-IgG to reveal bound antibody. The cells were analyzed on a FACSCalibur instrument (BD Biosciences, San Jose, Calif.) and the data was processed using FlowJo software.

human RSPO2 [3] = target: T1, human RSPO2; assay: FACS screening of hybridoma supernatants on HEK-293 cells expressing FLAG-RSPO2furin-CD4TM-GFP; assay type: binding
Source text: Antibodies were generated against recombinant human RSPO2 protein amino acids 22-205 (R&D Systems, Minneapolis, Minn.). Mice (n=3) were immunized with RSPO2 protein using standard techniques. Sera from individual mice were screened against RSPO2 approximately 70 days after initial immunization using FACS analysis. The animal with the highest antibody titer was selected for final antigen boost after which spleen cells were isolated for hybridoma production. SP2/0 cells were used as fusion partners for the mouse spleen cells. Hybridoma cells were plated at 1 cell per well in 96 well plates, and the supernatants were screened against human RSPO2 by FACS analysis.
As described in Example 5, for FACS screening of anti-RSPO2 antibodies a chimeric fusion protein enabling cell surface expression of the N-terminal furin-like domains of human RSPO2 was constructed. Similar to what is depicted in FIG. 5A for RSPO1, the RSPO2 fusion protein contains a N-terminal FLAG tag, followed by the furin-like domains of RSPO2 (aa 31-146) and fused to the transmembrane and intracellular domain of human CD4 and a C-terminal green fluorescent protein tag (FLAG-RSPO2furin-CD4TM-GFP).
HEK-293 cells were transfected with FLAG-RSPO2furin-CD4TM-GFP. […] The cells were analyzed on a FACSCalibur instrument (BD Biosciences, San Jose, Calif.) and the data was processed using FlowJo software.

[4] = tested on: β-catenin signaling induced by RSPO3; assay: TOPflash luciferase assay in HEK-293 cells, Wnt3a plus human RSPO3; assay type: cell-based; settings: Wnt3a 5 ng/ml, RSPO3 10 ng/ml
Experimental: (§1) HEK-293 cells were transfected with a 6×TCF-luciferase reporter vector (TOPflash, Millipore, Billerica, Mass.). After 24-48 hrs, the transfected HEK-293 cells were incubated with a combination of Wnt3a (5 ng/ml) and human RSPO2 (10 ng/ml, R&D BioSystems) or human RSPO3 (10 ng/ml, R&D BioSystems) in the presence of anti-RSPO2 antibodies 130M23, 130M24, 130M25, 130M26, 130M27, and 130M28. Cells were incubated with a combination of Wnt3a and RSPO, Wnt3a only or with no addition as controls. The cells were incubated for 16 hours and luciferase activity was measured using Steady-Glo® Luciferase Assay System according to the manufacturer's instructions (Promega, Madison, Wis.).

[5] = tested on: RSPO2-induced β-catenin signaling; assay: TOPflash luciferase assay in HEK-293 cells, Wnt3a plus human RSPO2; assay type: cell-based; settings: Wnt3a 5 ng/ml, RSPO2 10 ng/ml
Experimental: as §1

β-catenin signaling = assay: Luciferase assay in STF-293 cells with LU2 cells, lung tumor cell-conditioned medium and Wnt3a-L cell-conditioned medium; assay type: cell-based, human
Experimental: Conditioned medium from human lung tumor LU2 cells was prepared as described in Example 3 and soluble LGR5-Fc was produced as described in Example 2.
STF-293 cells were incubated with LU2 cells plus 25% lung tumor cell-conditioned medium plus 25% Wnt3a-L cell-conditioned medium. Antibody 130M23 and soluble LGR5-Fc were added to the cells in 5-fold serially dilutions from 50 μg/ml to 0.0006 μg/ml. An irrelevant monoclonal antibody, similarly diluted, and a control Fc fusion protein (50 ug/ml) were used as negative controls. The cells were incubated for 20 hours and luciferase activity was measured using Steady-Glo® Luciferase Assay System according to the manufacturer's instructions (Promega, Madison, Wis.).

PN7 tumors = assay: Serial transplantation of cells from treated PN7 tumors (tumorigenicity); assay type: in vivo, NOD-SCID mice; settings: 90 cells injected, 40 days growth with no treatment; vs control antibody
Experimental: The PN7 tumors described above were processed to yield single cell suspensions. Mouse cells were depleted from the cell mixtures using biotinylated anti-H2K^d and anti-CD45 antibodies and streptavidin-conjugated magnetic beads. The remaining human tumor cells were serially transplanted into a new cohort of mice. 90 tumor cells from each treatment group were injected into the flanks of NOD-SCID mice (n=10 mice per group). Tumors were allowed to grow for 40 days with no treatment and tumor volumes were measured with electronic calipers.

[6] = tested on: PN31 pancreatic tumor cells; assay: PN31 pancreatic tumor xenograft growth in NOD/SCID mice; assay type: in vivo; settings: antibodies 15 mg/kg once a week, intraperitoneal
Experimental: Dissociated PN31 pancreatic tumor cells (1×10^5cells) were injected subcutaneously into the flanks of 6-8 week old NOD/SCID mice. Tumors were allowed to grow for 61 days until they reached an average volume of 120 mm^3. The mice were randomized (n=10 per group) and treated with anti-RSPO1 antibody 89M5, anti-RSPO2 antibody 130M23, gemcitabine, a combination of 89M5 and gemcitabine, a combination of 130M23 and gemcitabine, or control antibody 1B7.11. Antibodies were dosed at 15 mg/kg once a week, and gemcitabine was dosed at […] once a week. Administration of the antibodies and gemcitabine was performed via injection into the intraperitoneal cavity. Tumor growth was monitored and tumor volumes were measured with electronic calipers at specific time points. Data are expressed as mean±S.E.M.

binding of RSPO2 to LGR5 = target: T2, binding of RSPO2 to LGR5 (Homo sapiens, UniProt Q6UXX9); assay: FACS: blocking of soluble RSPO2-Fc binding to LGR5 on HEK-293 cells; settings: RSPO2-Fc 10 μg/ml
T2 construct: full-length human RSPO1, RSPO2, RSPO3 and RSPO4 were ligated in-frame to a human Fc region; made in house; host or cells: RSPO2-Fc: insect cells (baculovirus); LGR5 construct: transiently transfected HEK-293
Experimental: HEK-293 cells were transiently transfected with the FLAG-LGR5-CD4TM-GFP construct (previously described in Example 2). After 48 hours, transfected cells were suspended in ice cold PBS containing 2% FBS and heparin and incubated on ice in the presence of RSPO2-Fc protein (10 μg/ml) and antibodies 130M23, 130M24, 130M25, 130M26, 130M27, and 130M28. A second incubation with 100 μl PE-conjugated anti-human Fc secondary antibody was performed to detect cells bound by the RSPO2-Fc fusion protein. The cells were analyzed on a FACSCalibur instrument (BD Biosciences, San Jose, Calif.) and the data was processed using FlowJo software.

T1 sequence (Q6UXX9 31-146): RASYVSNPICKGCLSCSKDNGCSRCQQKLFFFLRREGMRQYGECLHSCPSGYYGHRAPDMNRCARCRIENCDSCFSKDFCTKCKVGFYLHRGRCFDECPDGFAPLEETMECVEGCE
T2 sequence (Q6UXX9 22-243 L186P): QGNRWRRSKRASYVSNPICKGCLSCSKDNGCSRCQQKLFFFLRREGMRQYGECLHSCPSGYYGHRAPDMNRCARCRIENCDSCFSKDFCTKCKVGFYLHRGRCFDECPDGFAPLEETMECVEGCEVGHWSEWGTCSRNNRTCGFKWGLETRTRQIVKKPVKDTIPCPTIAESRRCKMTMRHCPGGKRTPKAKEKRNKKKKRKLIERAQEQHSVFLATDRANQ

binding to human RSPO2 (FACS) (human RSPO2 [2]): bind
binding to RSPO2 (FACS) (human RSPO2 [3]): bound
blocking of binding of RSPO2 to LGR5 (binding of RSPO2 to LGR5): blocked
B1: 130M23: anti-RSPO2 monoclonal antibody, hybridoma ATCC PTA-12021; variable regions SEQ ID NO:27 and SEQ ID NO:28 (antibody, V domains shown)
VH: EVKLVESGGGLVKPGGSLKFSCAASGFSFSSYAMSWVRQTPEKRLEWVASISSGGSTYYPDSVKGRFTISRDNVRNILYLQMSSLRSEDTAMYFCARGGDPGVYNGDYEDAMDYWGQGTSVTVSS
VL: DIVMTQSHKFMSTSVGDRVSITCKASQDVSSAVAWYQQKPGQSPKLLIYWASTRHTGVPDRFTNSGSGTDYTLTISSVQAEDLALYYCQQHYSTPWTFGGGTKLEIK
modifications: 130M23 Heavy chain variable region; 130M23 Light chain variable region
proliferation (anti-Ki67 antibody IHC) ([1]; PN7 tumors of treated mice): significant decrease in proliferation
morphology of PN7 tumors (IHC) ([1]; treated vs untreated mice): induced morphological changes
reduction in tumor growth ([1]; vs control antibody, 130M23 10 mg/kg, 18R5 20 mg/kg, gemcitabine once a week, intraperitoneal): approximately 55%
blocking of β-catenin signaling induced by RSPO3 [4]: did not block
effect on RSPO2-induced β-catenin signaling [5]: completely blocked
induction of luciferase activity by lung tumor cell-conditioned medium and Wnt3a-conditioned medium (β-catenin signaling; increasing concentrations, 50 to 0.0006 μg/ml): reduced
potency relative to LGR5-Fc (β-catenin signaling; more potent than LGR5-Fc): greater than 100 fold
tumorigenicity of cells isolated from treated mice (PN7 tumors): greatly decreased tumorigenicity
effect on tumor growth as single agents [6]: only a minimal effect
